Measurements reported in patent US20240400708A1.

Target: feline FcRn complex (FcRn-α subunit and β-microglobulin), biotin labeled (feline)
Test: SPR, pH 6

| Binder | Kd [nM] |
| --- | --- |
| feline IgG1a H436K (antibody, part only; not given: Variable domains, not shown: another chain or arm of the molecule) constant: ASTTAPSVFPLAPSCGTTSGATVALACLVLGYFPEPVTVSWNSGALTSGVHTFPAVLQASGLYSLSSMVTVPSSRWLSDTFTCNVAHPPSNTKVDKTVRKTDHPPGPKPCDCPKCPPPEMLGGPSIFIFPPKPKDTLSISRTPEVTCLVVDLGPDDSDVQITWFVDNTQVYTAKTSPREEQFNSTYRVVSVLPILHQDWLKGKEFKCKVNSKSLPSPIERTISKAKGQPHEPQVYVLPPAQEELSRNKVSVTCLIKSFHPPDIAVEWEITGQPEPENNYRTTPPQLDSDGTYFVYSKLSVDRSHWQRGNTYTCSVSHEALHSHKTQKSLTQSPGK | 6.91 |
| feline IgG1a A431R (antibody, part only; not given: Variable domains, not shown: another chain or arm of the molecule) constant: ASTTAPSVFPLAPSCGTTSGATVALACLVLGYFPEPVTVSWNSGALTSGVHTFPAVLQASGLYSLSSMVTVPSSRWLSDTFTCNVAHPPSNTKVDKTVRKTDHPPGPKPCDCPKCPPPEMLGGPSIFIFPPKPKDTLSISRTPEVTCLVVDLGPDDSDVQITWFVDNTQVYTAKTSPREEQFNSTYRVVSVLPILHQDWLKGKEFKCKVNSKSLPSPIERTISKAKGQPHEPQVYVLPPAQEELSRNKVSVTCLIKSFHPPDIAVEWEITGQPEPENNYRTTPPQLDSDGTYFVYSKLSVDRSHWQRGNTYTCSVSHERLHSHHTQKSLTQSPGK | 6.73 |
| feline IgG1a E430Q (antibody, part only; not given: Variable domains, not shown: another chain or arm of the molecule) constant: ASTTAPSVFPLAPSCGTTSGATVALACLVLGYFPEPVTVSWNSGALTSGVHTFPAVLQASGLYSLSSMVTVPSSRWLSDTFTCNVAHPPSNTKVDKTVRKTDHPPGPKPCDCPKCPPPEMLGGPSIFIFPPKPKDTLSISRTPEVTCLVVDLGPDDSDVQITWFVDNTQVYTAKTSPREEQFNSTYRVVSVLPILHQDWLKGKEFKCKVNSKSLPSPIERTISKAKGQPHEPQVYVLPPAQEELSRNKVSVTCLIKSFHPPDIAVEWEITGQPEPENNYRTTPPQLDSDGTYFVYSKLSVDRSHWQRGNTYTCSVSHQALHSHHTQKSLTQSPGK | 6.58 |
| feline IgG1a D249E (antibody, part only; not given: Variable domains, not shown: another chain or arm of the molecule) constant: ASTTAPSVFPLAPSCGTTSGATVALACLVLGYFPEPVTVSWNSGALTSGVHTFPAVLQASGLYSLSSMVTVPSSRWLSDTFTCNVAHPPSNTKVDKTVRKTDHPPGPKPCDCPKCPPPEMLGGPSIFIFPPKPKETLSISRTPEVTCLVVDLGPDDSDVQITWFVDNTQVYTAKTSPREEQFNSTYRVVSVLPILHQDWLKGKEFKCKVNSKSLPSPIERTISKAKGQPHEPQVYVLPPAQEELSRNKVSVTCLIKSFHPPDIAVEWEITGQPEPENNYRTTPPQLDSDGTYFVYSKLSVDRSHWQRGNTYTCSVSHEALHSHHTQKSLTQSPGK | 5.84 |
| feline IgG1a Q311L (antibody, part only; not given: Variable domains, not shown: another chain or arm of the molecule) constant: ASTTAPSVFPLAPSCGTTSGATVALACLVLGYFPEPVTVSWNSGALTSGVHTFPAVLQASGLYSLSSMVTVPSSRWLSDTFTCNVAHPPSNTKVDKTVRKTDHPPGPKPCDCPKCPPPEMLGGPSIFIFPPKPKDTLSISRTPEVTCLVVDLGPDDSDVQITWFVDNTQVYTAKTSPREEQFNSTYRVVSVLPILHLDWLKGKEFKCKVNSKSLPSPIERTISKAKGQPHEPQVYVLPPAQEELSRNKVSVTCLIKSFHPPDIAVEWEITGQPEPENNYRTTPPQLDSDGTYFVYSKLSVDRSHWQRGNTYTCSVSHEALHSHHTQKSLTQSPGK | 6.38 |
| feline IgG1a A431V (antibody, part only; not given: Variable domains, not shown: another chain or arm of the molecule) constant: ASTTAPSVFPLAPSCGTTSGATVALACLVLGYFPEPVTVSWNSGALTSGVHTFPAVLQASGLYSLSSMVTVPSSRWLSDTFTCNVAHPPSNTKVDKTVRKTDHPPGPKPCDCPKCPPPEMLGGPSIFIFPPKPKDTLSISRTPEVTCLVVDLGPDDSDVQITWFVDNTQVYTAKTSPREEQFNSTYRVVSVLPILHQDWLKGKEFKCKVNSKSLPSPIERTISKAKGQPHEPQVYVLPPAQEELSRNKVSVTCLIKSFHPPDIAVEWEITGQPEPENNYRTTPPQLDSDGTYFVYSKLSVDRSHWQRGNTYTCSVSHEVLHSHHTQKSLTQSPGK | 7.08 |
| feline IgG1a S434C (antibody, part only; not given: Variable domains, not shown: another chain or arm of the molecule) constant: ASTTAPSVFPLAPSCGTTSGATVALACLVLGYFPEPVTVSWNSGALTSGVHTFPAVLQASGLYSLSSMVTVPSSRWLSDTFTCNVAHPPSNTKVDKTVRKTDHPPGPKPCDCPKCPPPEMLGGPSIFIFPPKPKDTLSISRTPEVTCLVVDLGPDDSDVQITWFVDNTQVYTAKTSPREEQFNSTYRVVSVLPILHQDWLKGKEFKCKVNSKSLPSPIERTISKAKGQPHEPQVYVLPPAQEELSRNKVSVTCLIKSFHPPDIAVEWEITGQPEPENNYRTTPPQLDSDGTYFVYSKLSVDRSHWQRGNTYTCSVSHEALHCHHTQKSLTQSPGK | 11.8 |

More lines, now with the values ahead:

| Kd [nM] | Binder |
| --- | --- |
| 4.77 | feline IgG1a D401R (antibody, part only; not given: Variable domains, not shown: another chain or arm of the molecule) constant: ASTTAPSVFPLAPSCGTTSGATVALACLVLGYFPEPVTVSWNSGALTSGVHTFPAVLQASGLYSLSSMVTVPSSRWLSDTFTCNVAHPPSNTKVDKTVRKTDHPPGPKPCDCPKCPPPEMLGGPSIFIFPPKPKDTLSISRTPEVTCLVVDLGPDDSDVQITWFVDNTQVYTAKTSPREEQFNSTYRVVSVLPILHQDWLKGKEFKCKVNSKSLPSPIERTISKAKGQPHEPQVYVLPPAQEELSRNKVSVTCLIKSFHPPDIAVEWEITGQPEPENNYRTTPPQLDSRGTYFVYSKLSVDRSHWQRGNTYTCSVSHEALHSHHTQKSLTQSPGK |
| 8.25 | feline IgG1a H436M (antibody, part only; not given: Variable domains, not shown: another chain or arm of the molecule) constant: ASTTAPSVFPLAPSCGTTSGATVALACLVLGYFPEPVTVSWNSGALTSGVHTFPAVLQASGLYSLSSMVTVPSSRWLSDTFTCNVAHPPSNTKVDKTVRKTDHPPGPKPCDCPKCPPPEMLGGPSIFIFPPKPKDTLSISRTPEVTCLVVDLGPDDSDVQITWFVDNTQVYTAKTSPREEQFNSTYRVVSVLPILHQDWLKGKEFKCKVNSKSLPSPIERTISKAKGQPHEPQVYVLPPAQEELSRNKVSVTCLIKSFHPPDIAVEWEITGQPEPENNYRTTPPQLDSDGTYFVYSKLSVDRSHWQRGNTYTCSVSHEALHSHMTQKSLTQSPGK |
| 5.41 | feline IgG1a D249A (antibody, part only; not given: Variable domains, not shown: another chain or arm of the molecule) constant: ASTTAPSVFPLAPSCGTTSGATVALACLVLGYFPEPVTVSWNSGALTSGVHTFPAVLQASGLYSLSSMVTVPSSRWLSDTFTCNVAHPPSNTKVDKTVRKTDHPPGPKPCDCPKCPPPEMLGGPSIFIFPPKPKATLSISRTPEVTCLVVDLGPDDSDVQITWFVDNTQVYTAKTSPREEQFNSTYRVVSVLPILHQDWLKGKEFKCKVNSKSLPSPIERTISKAKGQPHEPQVYVLPPAQEELSRNKVSVTCLIKSFHPPDIAVEWEITGQPEPENNYRTTPPQLDSDGTYFVYSKLSVDRSHWQRGNTYTCSVSHEALHSHHTQKSLTQSPGK |
| 3.35 | feline IgG1a S434E (antibody, part only; not given: Variable domains, not shown: another chain or arm of the molecule) constant: ASTTAPSVFPLAPSCGTTSGATVALACLVLGYFPEPVTVSWNSGALTSGVHTFPAVLQASGLYSLSSMVTVPSSRWLSDTFTCNVAHPPSNTKVDKTVRKTDHPPGPKPCDCPKCPPPEMLGGPSIFIFPPKPKDTLSISRTPEVTCLVVDLGPDDSDVQITWFVDNTQVYTAKTSPREEQFNSTYRVVSVLPILHQDWLKGKEFKCKVNSKSLPSPIERTISKAKGQPHEPQVYVLPPAQEELSRNKVSVTCLIKSFHPPDIAVEWEITGQPEPENNYRTTPPQLDSDGTYFVYSKLSVDRSHWQRGNTYTCSVSHEALHEHHTQKSLTQSPGK |
| 10.9 | feline IgG1a H436G (antibody, part only; not given: Variable domains, not shown: another chain or arm of the molecule) constant: ASTTAPSVFPLAPSCGTTSGATVALACLVLGYFPEPVTVSWNSGALTSGVHTFPAVLQASGLYSLSSMVTVPSSRWLSDTFTCNVAHPPSNTKVDKTVRKTDHPPGPKPCDCPKCPPPEMLGGPSIFIFPPKPKDTLSISRTPEVTCLVVDLGPDDSDVQITWFVDNTQVYTAKTSPREEQFNSTYRVVSVLPILHQDWLKGKEFKCKVNSKSLPSPIERTISKAKGQPHEPQVYVLPPAQEELSRNKVSVTCLIKSFHPPDIAVEWEITGQPEPENNYRTTPPQLDSDGTYFVYSKLSVDRSHWQRGNTYTCSVSHEALHSHGTQKSLTQSPGK |
| 6.64 | feline IgG1a A431Q (antibody, part only; not given: Variable domains, not shown: another chain or arm of the molecule) constant: ASTTAPSVFPLAPSCGTTSGATVALACLVLGYFPEPVTVSWNSGALTSGVHTFPAVLQASGLYSLSSMVTVPSSRWLSDTFTCNVAHPPSNTKVDKTVRKTDHPPGPKPCDCPKCPPPEMLGGPSIFIFPPKPKDTLSISRTPEVTCLVVDLGPDDSDVQITWFVDNTQVYTAKTSPREEQFNSTYRVVSVLPILHQDWLKGKEFKCKVNSKSLPSPIERTISKAKGQPHEPQVYVLPPAQEELSRNKVSVTCLIKSFHPPDIAVEWEITGQPEPENNYRTTPPQLDSDGTYFVYSKLSVDRSHWQRGNTYTCSVSHEQLHSHHTQKSLTQSPGK |
| 5.66 | feline IgG1a S434D (antibody, part only; not given: Variable domains, not shown: another chain or arm of the molecule) constant: ASTTAPSVFPLAPSCGTTSGATVALACLVLGYFPEPVTVSWNSGALTSGVHTFPAVLQASGLYSLSSMVTVPSSRWLSDTFTCNVAHPPSNTKVDKTVRKTDHPPGPKPCDCPKCPPPEMLGGPSIFIFPPKPKDTLSISRTPEVTCLVVDLGPDDSDVQITWFVDNTQVYTAKTSPREEQFNSTYRVVSVLPILHQDWLKGKEFKCKVNSKSLPSPIERTISKAKGQPHEPQVYVLPPAQEELSRNKVSVTCLIKSFHPPDIAVEWEITGQPEPENNYRTTPPQLDSDGTYFVYSKLSVDRSHWQRGNTYTCSVSHEALHDHHTQKSLTQSPGK |
| 5.24 | feline IgG1a D249S (antibody, part only; not given: Variable domains, not shown: another chain or arm of the molecule) constant: ASTTAPSVFPLAPSCGTTSGATVALACLVLGYFPEPVTVSWNSGALTSGVHTFPAVLQASGLYSLSSMVTVPSSRWLSDTFTCNVAHPPSNTKVDKTVRKTDHPPGPKPCDCPKCPPPEMLGGPSIFIFPPKPKSTLSISRTPEVTCLVVDLGPDDSDVQITWFVDNTQVYTAKTSPREEQFNSTYRVVSVLPILHQDWLKGKEFKCKVNSKSLPSPIERTISKAKGQPHEPQVYVLPPAQEELSRNKVSVTCLIKSFHPPDIAVEWEITGQPEPENNYRTTPPQLDSDGTYFVYSKLSVDRSHWQRGNTYTCSVSHEALHSHHTQKSLTQSPGK |
| 5.89 | feline IgG1a E430I (antibody, part only; not given: Variable domains, not shown: another chain or arm of the molecule) constant: ASTTAPSVFPLAPSCGTTSGATVALACLVLGYFPEPVTVSWNSGALTSGVHTFPAVLQASGLYSLSSMVTVPSSRWLSDTFTCNVAHPPSNTKVDKTVRKTDHPPGPKPCDCPKCPPPEMLGGPSIFIFPPKPKDTLSISRTPEVTCLVVDLGPDDSDVQITWFVDNTQVYTAKTSPREEQFNSTYRVVSVLPILHQDWLKGKEFKCKVNSKSLPSPIERTISKAKGQPHEPQVYVLPPAQEELSRNKVSVTCLIKSFHPPDIAVEWEITGQPEPENNYRTTPPQLDSDGTYFVYSKLSVDRSHWQRGNTYTCSVSHIALHSHHTQKSLTQSPGK |
